Where no end group is shown, it is not given here. The star is where a group is joined. Biotin = O=C1N[C@H]2[C@H](CS[C@H]2CCCCC(=O)*)N1
Target: T1, Calmodulin from bovine brain (bovine, UniProt P62157 1-149)
T1 construct: calmodulin, bovine, purified from brain; also called purified bovine brain CaM; CaM; source: bought: Sigma-Aldrich Cat#208694, purified from bovine brain
Test: SPR; Biacore 3000, 25 °C; biotinylated peptides captured on a streptavidin chip; CaM injected at 13.2 nM to 9.6 µM; HBSP (10 mM HEPES pH 7.4, 150 mM NaCl, 0.005% P20) with 1 mM CaCl2; equilibrium analysis, apparent KD
Settings: both partners purified

binding result: binds
B1: Peptide INF2 2-19 L14L18A, biotinylated (for surface plasmon resonance) (peptide)
peptide: K(Biotin)GGSVKEGAQRKWAAAKEKAG
notes: added N-terminal K (biotinylated) and two G residues as spacer; INF2, human, amino acids 2-19 with L14A and L18A; also called double L14L18A 2-19 peptide mutant; source: synthetic peptide (Proteomics Facility, CNB, CSIC), HPLC purified

From article PMC9616786 (Cellular and Molecular Life Sciences, 2022)
